This is an account of results in article PMC4039082 (Science (New York, N.Y.), 2013).

To fix the notation:
B6: Tfg2 subunit of TFIIF (natural protein, S. cerevisiae, UniProt P41896 1-400, looked up)
chain: MSSGSAGAPALSNNSTNSVAKEKSGNISGDEYLSQEEEVFDGNDIENNETKVYEESLDLDLERSNRQVWLVRLPMFLAEKWRDRNNLHGQELGKIRINKDGSKITLLLNENDNDSIPHEYDLELTKKVVENEYVFTEQNLKKYQQRKKELEADPEKQRQAYLKKQEREEELKKKQQQQKRRNNRKKFNHRVMTDRDGRDRYIPYVKTIPKKTAIVGTVCHECQVMPSMNDPNYHKIVEQRRNIVKLNNKERITTLDETVGVTMSHTGMSMRSDNSNFLKVGREKAKSNIKSIRMPKKEILDYLFKLFDEYDYWSLKGLKERTRQPEAHLKECLDKVATLVKKGPYAFKYTLRPEYKKLKEEERKATLGELADEQTGSAGDNAQGDAEADLEDEIEMEDVV
B7: Ssl2 helicase subunit of TFIIH (natural protein, S. cerevisiae, UniProt Q00578 1-843, looked up)
chain: MTDVEGYQPKSKGKIFPDMGESFFSSDEDSPATDAEIDENYDDNRETSEGRGERDTGAMVTGLKKPRKKTKSSRHTAADSSMNQMDAKDKALLQDTNSDIPADFVPDSVSGMFRSHDFSYLRLRPDHASRPLWISPSDGRIILESFSPLAEQAQDFLVTIAEPISRPSHIHEYKITAYSLYAAVSVGLETDDIISVLDRLSKVPVAESIINFIKGATISYGKVKLVIKHNRYFVETTQADILQMLLNDSVIGPLRIDSDHQVQPPEDVLQQQLQQTAGKPATNVNPNDVEAVFSAVIGGDNEREEEDDDIDAVHSFEIANESVEVVKKRCQEIDYPVLEEYDFRNDHRNPDLDIDLKPSTQIRPYQEKSLSKMFGNGRARSGIIVLPCGAGKTLVGITAACTIKKSVIVLCTSSVSVMQWRQQFLQWCTLQPENCAVFTSDNKEMFQTESGLVVSTYSMVANTRNRSHDSQKVMDFLTGREWGFIILDEVHVVPAAMFRRVVSTIAAHAKLGLTATLVREDDKIGDLNFLIGPKLYEANWMELSQKGHIANVQCAEVWCPMTAEFYQEYLRETARKRMLLYIMNPTKFQACQFLIQYHERRGDKIIVFSDNVYALQEYALKMGKPFIYGSTPQQERMNILQNFQYNDQINTIFLSKVGDTSIDLPEATCLIQISSHYGSRRQEAQRLGRILRAKRRNDEGFNAFFYSLVSKDTQEMYYSTKRQAFLVDQGYAFKVITHLHGMENIPNLAYASPRERRELLQEVLLKNEEAAGIEVGDDADNSVGRGSNGHKRFKSKAVRGEGSLSGLAGGEDMAYMEYSTNKNKELKEHHPLIRKMYYKNLKK

Holding throughout (test): cross-linking
The target in assay [1] is B6.
Assay [2] addresses T1, Tfa1 subunit of TFIIE (S. cerevisiae, UniProt P36100 1-482).
T1 sequence (looked up): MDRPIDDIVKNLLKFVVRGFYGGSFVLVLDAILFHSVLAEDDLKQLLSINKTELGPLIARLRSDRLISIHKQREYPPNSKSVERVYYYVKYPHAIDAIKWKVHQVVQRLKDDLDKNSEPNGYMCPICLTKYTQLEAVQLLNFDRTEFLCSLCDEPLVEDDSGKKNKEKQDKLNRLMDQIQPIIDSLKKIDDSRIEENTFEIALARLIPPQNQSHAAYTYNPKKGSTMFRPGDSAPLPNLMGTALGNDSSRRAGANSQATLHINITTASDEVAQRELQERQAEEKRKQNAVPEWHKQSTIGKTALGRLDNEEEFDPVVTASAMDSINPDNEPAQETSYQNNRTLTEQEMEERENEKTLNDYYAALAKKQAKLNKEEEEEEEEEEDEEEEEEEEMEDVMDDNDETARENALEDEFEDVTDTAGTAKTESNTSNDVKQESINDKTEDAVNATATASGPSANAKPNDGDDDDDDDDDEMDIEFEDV

In assay [3] the target is Rpb2 subunit of pol II (S. cerevisiae, UniProt P08518 1-1224).
Chain of Rpb2 subunit of pol II (P08518 whole entry): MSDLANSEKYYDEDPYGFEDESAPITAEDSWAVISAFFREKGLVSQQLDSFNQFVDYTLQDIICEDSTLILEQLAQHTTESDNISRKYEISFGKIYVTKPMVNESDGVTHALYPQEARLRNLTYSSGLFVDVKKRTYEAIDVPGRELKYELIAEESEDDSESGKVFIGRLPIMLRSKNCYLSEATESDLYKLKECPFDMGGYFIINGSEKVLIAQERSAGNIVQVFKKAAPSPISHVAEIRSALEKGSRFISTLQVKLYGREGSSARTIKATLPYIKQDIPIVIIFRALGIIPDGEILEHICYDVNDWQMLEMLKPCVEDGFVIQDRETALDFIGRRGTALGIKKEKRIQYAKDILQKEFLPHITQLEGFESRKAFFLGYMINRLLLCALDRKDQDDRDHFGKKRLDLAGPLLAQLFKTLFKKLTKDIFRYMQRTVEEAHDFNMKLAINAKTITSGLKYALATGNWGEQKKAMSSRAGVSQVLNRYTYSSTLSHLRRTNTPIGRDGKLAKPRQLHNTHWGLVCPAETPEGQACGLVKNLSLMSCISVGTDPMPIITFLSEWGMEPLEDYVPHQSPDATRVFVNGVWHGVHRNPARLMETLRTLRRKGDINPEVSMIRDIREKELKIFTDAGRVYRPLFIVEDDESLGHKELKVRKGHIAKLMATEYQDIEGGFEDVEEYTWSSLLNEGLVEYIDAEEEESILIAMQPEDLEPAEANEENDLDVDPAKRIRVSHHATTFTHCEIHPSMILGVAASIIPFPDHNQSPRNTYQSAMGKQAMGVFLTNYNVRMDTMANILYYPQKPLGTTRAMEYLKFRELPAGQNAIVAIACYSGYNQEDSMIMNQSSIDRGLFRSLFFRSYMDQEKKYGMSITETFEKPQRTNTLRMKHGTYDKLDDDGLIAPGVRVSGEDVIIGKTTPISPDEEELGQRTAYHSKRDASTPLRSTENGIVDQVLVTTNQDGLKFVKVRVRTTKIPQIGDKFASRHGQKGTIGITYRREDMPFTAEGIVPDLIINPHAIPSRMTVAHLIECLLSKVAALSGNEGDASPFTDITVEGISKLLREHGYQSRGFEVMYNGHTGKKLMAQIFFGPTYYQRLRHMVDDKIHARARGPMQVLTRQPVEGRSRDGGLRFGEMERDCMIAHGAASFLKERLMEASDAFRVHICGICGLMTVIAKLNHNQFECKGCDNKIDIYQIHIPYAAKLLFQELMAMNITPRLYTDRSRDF
The target in assay [4] is B7.
Assay [5] addresses Rpb1 subunit of RNA polymerase II (S. cerevisiae, UniProt P04050 1-1733).

Chain of Rpb1 subunit of RNA polymerase II (P04050 whole entry): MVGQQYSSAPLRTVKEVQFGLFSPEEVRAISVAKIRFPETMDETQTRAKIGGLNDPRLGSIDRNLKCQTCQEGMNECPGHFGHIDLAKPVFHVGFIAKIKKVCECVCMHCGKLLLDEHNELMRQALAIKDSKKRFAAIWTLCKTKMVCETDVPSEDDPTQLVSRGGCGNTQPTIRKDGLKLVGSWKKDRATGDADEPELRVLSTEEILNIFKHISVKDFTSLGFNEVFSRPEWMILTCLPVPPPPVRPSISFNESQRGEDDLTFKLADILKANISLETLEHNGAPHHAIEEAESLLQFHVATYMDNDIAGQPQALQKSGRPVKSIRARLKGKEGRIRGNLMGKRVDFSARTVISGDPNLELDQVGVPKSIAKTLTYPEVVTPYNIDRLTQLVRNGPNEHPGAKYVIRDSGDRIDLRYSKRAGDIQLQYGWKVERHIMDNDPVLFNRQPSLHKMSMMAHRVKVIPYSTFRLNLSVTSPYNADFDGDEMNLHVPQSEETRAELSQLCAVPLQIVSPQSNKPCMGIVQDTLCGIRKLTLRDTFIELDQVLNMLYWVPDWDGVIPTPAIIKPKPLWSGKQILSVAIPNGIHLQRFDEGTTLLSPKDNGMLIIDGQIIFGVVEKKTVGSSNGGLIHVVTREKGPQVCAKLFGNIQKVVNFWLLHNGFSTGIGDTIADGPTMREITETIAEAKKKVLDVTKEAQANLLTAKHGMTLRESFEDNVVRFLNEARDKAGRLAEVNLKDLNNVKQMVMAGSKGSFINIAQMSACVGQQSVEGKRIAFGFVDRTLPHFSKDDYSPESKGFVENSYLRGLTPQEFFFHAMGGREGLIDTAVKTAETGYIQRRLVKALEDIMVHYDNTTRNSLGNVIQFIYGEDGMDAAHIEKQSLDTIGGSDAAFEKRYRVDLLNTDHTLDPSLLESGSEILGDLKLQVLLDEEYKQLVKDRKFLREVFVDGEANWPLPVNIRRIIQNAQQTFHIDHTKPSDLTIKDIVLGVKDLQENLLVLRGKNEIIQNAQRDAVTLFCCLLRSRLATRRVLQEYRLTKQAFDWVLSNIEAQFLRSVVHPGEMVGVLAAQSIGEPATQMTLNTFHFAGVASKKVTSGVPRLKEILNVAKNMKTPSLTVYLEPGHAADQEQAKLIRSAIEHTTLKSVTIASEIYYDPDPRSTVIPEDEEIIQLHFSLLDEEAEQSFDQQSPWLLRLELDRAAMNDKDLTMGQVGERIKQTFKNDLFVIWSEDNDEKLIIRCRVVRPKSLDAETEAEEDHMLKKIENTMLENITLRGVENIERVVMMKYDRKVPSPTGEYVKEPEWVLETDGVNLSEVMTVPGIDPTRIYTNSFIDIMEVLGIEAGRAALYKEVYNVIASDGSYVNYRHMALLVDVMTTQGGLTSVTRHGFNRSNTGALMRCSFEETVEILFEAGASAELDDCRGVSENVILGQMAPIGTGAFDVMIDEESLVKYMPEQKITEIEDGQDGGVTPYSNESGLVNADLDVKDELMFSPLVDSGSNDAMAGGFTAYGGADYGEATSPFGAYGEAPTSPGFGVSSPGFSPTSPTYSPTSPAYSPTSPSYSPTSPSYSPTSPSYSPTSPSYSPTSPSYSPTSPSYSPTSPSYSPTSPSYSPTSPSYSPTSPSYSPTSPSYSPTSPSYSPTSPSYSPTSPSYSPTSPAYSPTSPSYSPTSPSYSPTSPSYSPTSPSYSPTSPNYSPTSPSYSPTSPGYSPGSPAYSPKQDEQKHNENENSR

B1: TFIIB (natural protein, S. cerevisiae, UniProt P29055 1-345, looked up)
chain: MMTRESIDKRAGRRGPNLNIVLTCPECKVYPPKIVERFSEGDVVCALCGLVLSDKLVDTRSEWRTFSNDDHNGDDPSRVGEASNPLLDGNNLSTRIGKGETTDMRFTKELNKAQGKNVMDKKDNEVQAAFAKITMLCDAAELPKIVKDCAKEAYKLCHDEKTLKGKSMESIMAASILIGCRRAEVARTFKEIQSLIHVKTKEFGKTLNIMKNILRGKSEDGFLKIDTDNMSGAQNLTYIPRFCSHLGLPMQVTTSAEYTAKKCKEIKEIAGKSPITIAVVSIYLNILLFQIPITAAKVGQTLQVTEGTIKSGYKILYEHRDKLVDPQLIANGVVSLDNLPGVEKK
As for B1, in assay [1], the binding result is “binds”.

B2: Tfa2 subunit of TFIIE (natural protein, S. cerevisiae, UniProt P36145 1-328, looked up)
chain: MSKNRDPLLANLNAFKSKVKSAPVIAPAKVGQKKTNDTVITIDGNTRKRTASERAQENTLNSAKNPVLVDIKKEAGSNSSNAISLDDDDDDEDFGSSPSKKVRPGSIAAAALQANQTDISKSHDSSKLLWATEYIQKKGKPVLVNELLDYLSMKKDDKVIELLKKLDRIEFDPKKGTFKYLSTYDVHSPSELLKLLRSQVTFKGISCKDLKDGWPQCDETINQLEEDSKILVLRTKKDKTPRYVWYNSGGNLKCIDEEFVKMWENVQLPQFAELPRKLQDLGLKPASVDPATIKRQTKRVEVKKKRQRKGKITNTHMTGILKDYSHRV
In the case of B2, the binding result in assay [2] and in assay [1] was “binds” throughout.

B3: Tfg1 subunit of TFIIF (natural protein, S. cerevisiae, UniProt P41895 1-735, looked up)
chain: MSRRNPPGSRNGGGPTNASPFIKRDRMRRNFLRMRMGQNGSNSSSPGVPNGDNSRGSLVKKDDPEYAEEREKMLLQIGVEADAGRSNVKVKDEDPNEYNEFPLRAIPKEDLENMRTHLLKFQSKKKINPVTDFHLPVRLHRKDTRNLQFQLTRAEIVQRQKEISEYKKKAEQERSTPNSGGMNKSGTVSLNNTVKDGSQTPTVDSVTKDNTANGVNSSIPTVTGSSVPPASPTTVSAVESNGLSNGSTSAANGLDGNASTANLANGRPLVTKLEDAGPAEDPTKVGMVKYDGKEVTNEPEFEEGTMDPLADVAPDGGGRAKRGNLRRKTRQLKVLDENAKKLRFEEFYPWVMEDFDGYNTWVGSYEAGNSDSYVLLSVEDDGSFTMIPADKVYKFTARNKYATLTIDEAEKRMDKKSGEVPRWLMKHLDNIGTTTTRYDRTRRKLKAVADQQAMDEDDRDDNSEVELDYDEEFADDEEAPIIDGNEQENKESEQRIKKEMLQANAMGLRDEEAPSENEEDELFGEKKIDEDGERIKKALQKTELAALYSSDENEINPYLSESDIENKENESPVKKEEDSDTLSKSKRSSPKKQQKKATNAHVHKEPTLRVKSIKNCVIILKGDKKILKSFPEGEWNPQTTKAVDSSNNASNTVPSPIKQEEGLNSTVAEREETPAPTITEKDIIEAIGDGKVNIKEFGKFIRRKYPGAENKKLMFAIVKKLCRKVGNDHMELKKE
Consider B3, for which the binding result in assay [3] was “binds”.

B4: Toa2 subunit of TFIIA (natural protein, S. cerevisiae, UniProt P32774 1-122, looked up)
chain: MAVPGYYELYRRSTIGNSLVDALDTLISDGRIEASLAMRVLETFDKVVAETLKDNTQSKLTVKGNLDTYGFCDDVWTFIVKNCQVTVEDSHRDASQNGSGDSQSVISVDKLRIVACNSKKSE
Regarding B4, the binding result in assay [1] is reported as “binds”.

B5: Ssl1 subunit of core TFIIH (natural protein, S. cerevisiae, UniProt Q04673 1-461, looked up)
chain: MAPVVISESEEDEDRVAITRRTKRQVHFDGEGDDRVDQQQQQHSSSHRDRDKHVQRKKKKRLSNRNLQGSNGGYAWEDEIKRSWDLVKVDDEGDMASLVASIVEARKKRTAKKNITPYQRGIIRSLILTLDCSEAMLEKDLRPNRHAMIIQYAIDFVHEFFDQNPISQMGIIIMRNGLAQLVSQVSGNPQDHIDALKSIRKQEPKGNPSLQNALEMARGLLLPVPAHCTREVLIVFGSLSTTDPGDIHQTIDSLVSEKIRVKVLGLSAQVAICKELCKATNYGDESFYKILLDETHLKELFNEAVTPLPVNKINKGFTLVKMGFPTRIFEDTPTFCSCHSKLVYGGYFCPNCHSKVCSLPTVCPCCDLMLILSTHLARSYHHLMPLKTFAEVPTTEKFRSEDCFSCQSRFPILKNHKNGKLLTSSRYRCEDCKQEFCVDCDVFIHEILHNCPGCESKPVIT
B5: the binding result in assay [2] is “binds”.
On to B6, for which the binding result in assay [4] and in assay [3] was “binds” throughout.
As for B7, the binding result in assay [5] is on record as “binds”.
